Usually EC50 (read off the curve) stands for the concentration at which the effect is half-maximal. In general, Kd refers to the free concentration of one partner at which half of the binding sites on the other are occupied at equilibrium, for simple one-to-one binding.

The results in this text go back to US20130095104A1 (OMEROS, published 2013).

Assay [1] concerns the target T1, human Frizzled-10 (FZD10) (human, UniProt Q9ULW2 21-581).
T1 construct: no signal peptide limits are stated; also called FZ10; CD350
T1 sequence: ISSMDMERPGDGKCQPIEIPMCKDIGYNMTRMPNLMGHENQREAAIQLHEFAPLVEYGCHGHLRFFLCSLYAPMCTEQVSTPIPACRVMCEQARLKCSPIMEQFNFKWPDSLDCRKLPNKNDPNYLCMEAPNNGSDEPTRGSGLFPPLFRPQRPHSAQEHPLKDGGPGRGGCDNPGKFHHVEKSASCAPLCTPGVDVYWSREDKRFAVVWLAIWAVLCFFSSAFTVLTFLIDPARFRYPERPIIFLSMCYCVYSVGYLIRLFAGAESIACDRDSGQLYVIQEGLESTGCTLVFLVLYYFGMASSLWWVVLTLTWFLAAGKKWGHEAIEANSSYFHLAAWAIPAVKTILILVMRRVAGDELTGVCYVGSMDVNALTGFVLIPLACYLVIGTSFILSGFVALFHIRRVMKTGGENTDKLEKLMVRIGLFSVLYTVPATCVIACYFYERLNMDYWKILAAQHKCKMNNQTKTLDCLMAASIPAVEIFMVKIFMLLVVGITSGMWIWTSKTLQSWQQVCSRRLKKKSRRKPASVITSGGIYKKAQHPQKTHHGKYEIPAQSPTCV
The assay can be described thus: saturation binding of recombinant antibody on SYO-1 cells (FZD10+), flow cytometry MFI against Ab (nM). The protocol:
Affinity was determined by measuring saturation binding kinetics of the recombinant antibodies on SYO-1 cells.
For orientation: Flow cytometry measures light scatter and fluorescence of single cells or particles in a stream.

Assay [2] has as its target T1, human Frizzled-10 (FZD10). The assay can be described thus: saturation binding on SYO-1 cells, flow cytometry; B9L9.3 on SYO-1 cells, Example 1 (FIG. 3). The method, then: (§1) Recombinant antibodies were generated by cloning PCR-amplified V regions (Cummings et al., 2007 Supra) into a vector that supported expression of human IgG1 in 293F cells. Saturation binding kinetics were determined by either staining FZD10-specific DTLacO cells with various concentrations of fluorescent-labeled soluble antigen, or by staining FZD10-transfected cells or cancer cell lines intrinsically expressing FZD10 with various concentrations of the recombinant chimeric anti-FZD10 mAbs. To assay cell surface FZD10 binding, cells were stained with chimeric mAb clones B9A5 (parent), B9132.2 and B9L9.3 (progeny) or secondary antibody alone, all at concentrations ranging from […] to 800 nM, and analyzed by immunocytofluorimetry.

Assay [3] concerns the target T1, human Frizzled-10 (FZD10). The assay can be described thus: saturation binding of recombinant antibody on SYO-1 cells; Table 2 comparison with the humanized antibody.
Assay [4] deals with T1, human Frizzled-10 (FZD10). The assay can be described thus: saturation binding on SYO-1 cells, flow cytometry; B9L32.2 on SYO-1 cells. The protocol:
as §1

Assay [5] concerns the target T1, human Frizzled-10 (FZD10). The assay can be described thus: saturation binding of recombinant antibody on SYO-1 cells.

B1: chimeric anti-FZD10 mAb B9L9.3 (antibody, V domains shown)
VH: AVTLDESGGGLQTPGGALSLVCKASGFTFSSFNMFWVRQEPGKGLEWVAGIDDDGSYPNYGSAVKGRATISRDNGQSTLRLQLNNLRAEDTGTYFCAKSGYGGSWGGYIADDIDAWGHGTEVIVSS
VL: ALTQPASVSANPGETVKITCSGDGSYAGSYYYGWYQQKAPGSAPVTLIYYNNKRPSDIPSRFSGSLSGSTNTLTITGVRADDEAVYFCGSADNSGAAFGAGTTLTVL
notes: also called Chimeric B9L9.3; progeny clone B9L9.3
With B1, the “EC50 (read off the curve)” value in assay [1] is about 0.1 nM. Moreover, the Kd in assay [2] was 0.22 nM; in assay [3], 0.16 nM.

B2: chimeric anti-FZD10 mAb B9L32.2 (antibody, human IgG1, V domains shown)
VH: AVTLDESGGGLQTPGGALSLVCKASGFTFSSFNMFWVRQEPGKGLEWVAGIDDDGSYPNYGSAVKGRATISRDNGQSTLRLQLNNLRAEDTGTYFCAKSGYGGSWGGYIADDIDAWGHGTEVIVSS
VL: ALTQPASVSANPGETVKITCSGSDSSYAGSYYYGWYQQKAPGSAPVTLIYYNNKRPSDIPSRFSGSLSGSTNTLTITGVRADDEAVYFCGSADNSGAAFGAGTTLTVL
notes: also called progeny clone B9L32.2
In the case of B2, the Kd in assay [4] turned out to be 40 nM.

B3: humanized B9L9.3 antibody (antibody, human IgG1, lambda, V domains shown)
VH: EVQLVESGGGLVQPGGSLRLSCAASGFTFSSFNMFWVRQAPGKGLEWVAGIDDDGSYPNYGSAVKGRATISRDNSKNTLYLQMNSLRAEDTAVYYCAKSGYGGSWGGYIADDIDAWGQGTLVTVSS
VL: ELTQPPSVSVSPGQTARITCSGDGSYAGSYYYGWYQQKPGQAPVTLIYYNNKRPSGIPERFSGSLSGSTNTLTISGVQAEDEADYYCGSADNSGAAFGGGTKLTVLG
notes: Mature humanized heavy chain with human IgG1 constant region and mature humanized light chain with human lambda constant region; also called hB9L9.3; humanized B9L9.3 mAb
Regarding B3, the “EC50 (read off the curve)” value in assay [1] is about 0.2 nM. In assay [5], the Kd amounted to 0.22 nM.
